Results taken from patent publication US20240254239A1 (LAEKNA THERAPEUTICS SHANGHAI, published 2024).
Where a chain is given by its changes, count along the chain named. Numbers in names are those of the source. Blank lines part the entries; values can stand above or below the binder they belong to.

Legend:
[1] = target: T1, human CD248 ECD (human, UniProt Q9HCU0 18-687); test: direct ELISA on coated recombinant ECD (30 ng/well), HRP-conjugated secondary antibody, luminescence
T1 construct: extracellular domain; also called recombinant extracellular domain of CD248
T1 sequence (looked up): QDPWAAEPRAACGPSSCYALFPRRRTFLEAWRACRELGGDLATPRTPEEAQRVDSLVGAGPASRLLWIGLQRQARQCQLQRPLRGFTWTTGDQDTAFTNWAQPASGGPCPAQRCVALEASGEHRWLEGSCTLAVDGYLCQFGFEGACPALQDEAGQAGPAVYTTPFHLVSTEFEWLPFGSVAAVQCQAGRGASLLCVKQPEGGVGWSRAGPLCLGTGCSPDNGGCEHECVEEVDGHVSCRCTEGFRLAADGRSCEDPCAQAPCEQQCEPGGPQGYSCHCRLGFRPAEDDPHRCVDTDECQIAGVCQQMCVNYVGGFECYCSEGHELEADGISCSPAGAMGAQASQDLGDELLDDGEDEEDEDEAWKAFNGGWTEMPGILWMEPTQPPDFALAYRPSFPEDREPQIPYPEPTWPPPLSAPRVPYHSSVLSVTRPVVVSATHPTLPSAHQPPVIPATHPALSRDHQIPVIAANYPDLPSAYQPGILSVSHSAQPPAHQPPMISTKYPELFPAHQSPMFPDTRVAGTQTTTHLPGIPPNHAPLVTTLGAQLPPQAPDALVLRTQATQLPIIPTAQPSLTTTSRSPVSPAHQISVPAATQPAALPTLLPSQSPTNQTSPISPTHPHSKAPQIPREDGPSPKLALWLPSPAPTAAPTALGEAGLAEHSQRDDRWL
Method: (§1) Briefly, recombinant extracellular domain of PDGFRb, FAPα, ULBP1, uPAR, IGF1R, SIRPA, PD-L1, ANTXR1, CD248, or GPC3 (30 ng/well) was coated on white optiplate™-384 well HB plate. After overnight coating, standard direct ELISA assay was performed. Luminescence signal was detected after using secondary antibody with HRP conjugated. Binding activity of each antibody was determined based on dose dependent binding curve.

[2] = target: T2, IGF-1R on TGFb1-activated primary human HSC cells (human, UniProt P08069 31-1367); test: flow cytometry on TGFb1-activated primary human HSC cells, 10 ug/ml antibody, fluorophore-conjugated secondary antibody
T2 construct: whole, on cells
T2 sequence (P08069 31-1367): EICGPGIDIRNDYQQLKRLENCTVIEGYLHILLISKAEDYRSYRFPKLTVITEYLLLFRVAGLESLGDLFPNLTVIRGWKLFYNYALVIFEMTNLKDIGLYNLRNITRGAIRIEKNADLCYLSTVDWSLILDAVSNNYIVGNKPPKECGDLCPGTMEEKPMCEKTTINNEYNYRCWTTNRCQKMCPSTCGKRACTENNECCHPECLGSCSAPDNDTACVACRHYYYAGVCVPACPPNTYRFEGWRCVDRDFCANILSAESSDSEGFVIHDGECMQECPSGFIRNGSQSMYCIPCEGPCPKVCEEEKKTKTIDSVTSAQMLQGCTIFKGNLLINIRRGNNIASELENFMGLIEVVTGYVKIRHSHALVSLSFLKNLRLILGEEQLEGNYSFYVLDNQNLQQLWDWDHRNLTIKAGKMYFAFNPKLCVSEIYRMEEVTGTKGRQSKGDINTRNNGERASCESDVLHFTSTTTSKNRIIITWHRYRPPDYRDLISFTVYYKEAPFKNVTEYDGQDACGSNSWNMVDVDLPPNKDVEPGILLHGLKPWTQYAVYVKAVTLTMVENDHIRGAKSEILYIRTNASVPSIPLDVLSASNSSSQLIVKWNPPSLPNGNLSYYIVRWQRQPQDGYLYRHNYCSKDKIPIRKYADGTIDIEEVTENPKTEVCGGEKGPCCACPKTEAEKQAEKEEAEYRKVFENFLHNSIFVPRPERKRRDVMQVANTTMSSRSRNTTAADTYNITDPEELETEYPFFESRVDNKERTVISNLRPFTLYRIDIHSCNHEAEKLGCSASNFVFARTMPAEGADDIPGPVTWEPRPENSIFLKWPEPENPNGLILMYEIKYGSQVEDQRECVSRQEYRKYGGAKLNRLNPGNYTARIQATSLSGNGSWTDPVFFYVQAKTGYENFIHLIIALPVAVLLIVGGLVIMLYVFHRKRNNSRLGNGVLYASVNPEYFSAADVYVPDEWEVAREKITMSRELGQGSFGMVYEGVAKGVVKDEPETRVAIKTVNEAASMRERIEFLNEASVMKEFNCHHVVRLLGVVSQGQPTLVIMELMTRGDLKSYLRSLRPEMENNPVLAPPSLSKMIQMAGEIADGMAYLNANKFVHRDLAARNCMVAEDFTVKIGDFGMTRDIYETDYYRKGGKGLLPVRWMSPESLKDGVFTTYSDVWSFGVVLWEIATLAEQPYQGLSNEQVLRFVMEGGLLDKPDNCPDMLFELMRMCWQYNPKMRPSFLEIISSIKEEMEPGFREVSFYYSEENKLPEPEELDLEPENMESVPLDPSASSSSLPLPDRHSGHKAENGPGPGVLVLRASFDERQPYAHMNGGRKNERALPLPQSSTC
Method: Relative expression levels of the antigens on activated HSC were assayed using FACS. Human primary hepatic stellate cells (ScienCell, 5301) were cultured in culture medium (ScienCell, 5300). The cells were activated using 2 ng/ml human TGFb1 (Sinobiological, 10804-HNAC) for 24 hours. These cells were then collected for FACS assay. Briefly, the cells were incubated with 10 μg/ml primary antibody in blocking buffer (10% FBS in PBS) at 4 °C for 1 hour. After two rounds of PBS washes, the cells were stained with secondary antibody conjugated with a fluorophore. The mean fluorescence intensity was measured using FACS. Among the antigens tested, fibroblast activation protein alpha (FAPα) was expressed at relatively high levels, while uPAR, IGF-1R, GPC3, CD248 and NKG2D ligands were expressed at relatively low levels on TGFb1-activated HSC cells.

[3] = target: T3, human SIRPA ECD (human, UniProt P78324 31-373); test: direct ELISA on coated recombinant ECD (30 ng/well), HRP-conjugated secondary antibody, luminescence
T3 construct: extracellular domain; also called recombinant extracellular domain of SIRPA
T3 sequence (P78324 31-373): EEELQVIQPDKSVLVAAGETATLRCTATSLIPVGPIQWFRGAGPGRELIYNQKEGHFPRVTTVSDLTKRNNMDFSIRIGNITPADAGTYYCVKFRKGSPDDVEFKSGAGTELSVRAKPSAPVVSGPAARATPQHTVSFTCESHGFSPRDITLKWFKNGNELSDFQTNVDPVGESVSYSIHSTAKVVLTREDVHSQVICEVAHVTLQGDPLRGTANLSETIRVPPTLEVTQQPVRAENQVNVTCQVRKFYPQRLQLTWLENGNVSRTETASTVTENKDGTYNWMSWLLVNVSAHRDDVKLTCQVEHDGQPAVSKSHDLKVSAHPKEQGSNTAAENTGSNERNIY
Method: as §1

[4] = target: T4, human uPAR ECD (human, UniProt Q03405 23-305, limits assumed); test: as above
T4 construct: extracellular domain; also called recombinant extracellular domain of uPAR
T4 sequence (Q03405 23-305 limits assumed): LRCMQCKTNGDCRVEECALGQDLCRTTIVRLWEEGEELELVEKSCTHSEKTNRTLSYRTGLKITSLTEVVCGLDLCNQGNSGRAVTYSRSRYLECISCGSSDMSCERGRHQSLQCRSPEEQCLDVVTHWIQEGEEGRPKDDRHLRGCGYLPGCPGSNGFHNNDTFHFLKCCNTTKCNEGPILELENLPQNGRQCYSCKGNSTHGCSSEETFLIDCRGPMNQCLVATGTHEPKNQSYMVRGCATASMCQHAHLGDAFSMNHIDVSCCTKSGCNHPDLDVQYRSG
Method: as §1

[5] = target: T5, human ANTXR1 ECD (human, UniProt Q9H6X2 33-321); test: as above
T5 construct: extracellular domain; also called recombinant extracellular domain of ANTXR1
T5 sequence (looked up): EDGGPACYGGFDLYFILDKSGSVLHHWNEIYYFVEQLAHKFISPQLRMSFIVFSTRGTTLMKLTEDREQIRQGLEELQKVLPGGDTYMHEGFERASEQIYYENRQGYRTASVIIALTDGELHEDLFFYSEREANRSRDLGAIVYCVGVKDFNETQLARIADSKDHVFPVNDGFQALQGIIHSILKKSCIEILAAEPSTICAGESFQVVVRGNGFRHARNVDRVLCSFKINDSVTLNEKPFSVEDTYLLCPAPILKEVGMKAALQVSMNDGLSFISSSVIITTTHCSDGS
Method: as §1

[6] = target: T6, human PD-L1 ECD (human, UniProt Q9NZQ7 19-238); test: as above
T6 construct: extracellular domain; also called recombinant extracellular domain of PD-L1
T6 sequence (Q9NZQ7 19-238): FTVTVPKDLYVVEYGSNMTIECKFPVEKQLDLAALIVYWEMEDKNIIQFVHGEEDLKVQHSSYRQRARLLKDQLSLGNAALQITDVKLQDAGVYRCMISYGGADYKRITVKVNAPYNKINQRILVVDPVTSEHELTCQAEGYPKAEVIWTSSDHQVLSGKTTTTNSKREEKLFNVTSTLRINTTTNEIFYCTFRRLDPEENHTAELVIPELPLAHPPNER
Method: as §1

[7] = target: T7, human FAPa ECD (human, UniProt Q12884 26-760); test: as above
T7 construct: extracellular domain; also called recombinant extracellular domain of FAPα
T7 sequence (looked up): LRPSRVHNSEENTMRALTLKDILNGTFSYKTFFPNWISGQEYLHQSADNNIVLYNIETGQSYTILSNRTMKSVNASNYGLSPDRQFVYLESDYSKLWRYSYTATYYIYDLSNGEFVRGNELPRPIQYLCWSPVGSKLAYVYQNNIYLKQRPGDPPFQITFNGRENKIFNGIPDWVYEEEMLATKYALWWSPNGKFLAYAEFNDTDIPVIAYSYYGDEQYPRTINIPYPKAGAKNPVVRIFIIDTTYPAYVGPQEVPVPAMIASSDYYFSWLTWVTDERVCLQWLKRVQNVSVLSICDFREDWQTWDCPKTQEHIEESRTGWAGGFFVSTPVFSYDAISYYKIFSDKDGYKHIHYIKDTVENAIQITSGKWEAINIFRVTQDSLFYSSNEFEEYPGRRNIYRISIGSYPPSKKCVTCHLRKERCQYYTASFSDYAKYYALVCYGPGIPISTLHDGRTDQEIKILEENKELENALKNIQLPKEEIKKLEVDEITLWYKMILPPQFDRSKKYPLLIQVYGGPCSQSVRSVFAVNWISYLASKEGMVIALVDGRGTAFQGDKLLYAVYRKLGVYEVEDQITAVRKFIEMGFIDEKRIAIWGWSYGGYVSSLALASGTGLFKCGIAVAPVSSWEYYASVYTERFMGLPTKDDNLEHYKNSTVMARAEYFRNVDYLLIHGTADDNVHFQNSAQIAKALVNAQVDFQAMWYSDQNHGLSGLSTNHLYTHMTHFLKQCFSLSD
Method: as §1

B1: α-CD248 2 mIgG2a S239D/1332E (antibody, V domains shown)
VH: QVQLQESGPGLVRPSQTLSLTCTASGYTFTDYVIHWVKQPPGRGLEWIGYINPYDDDTTYNQKFKGRVTMLVDTSSNTAYLRLSSVTAEDTAVYYCARRGNSYDGYFDYSMDYWGSGTPVTVSS
VL: DIQMTQSPSSLSASVGDRVTITCRASQNVGTAVAWLQQTPGKAPKLLIYSASNRYTGVPSRFSGSGSGTDYTFTISSLQPEDIATYYCQQYTNYPMYTFGQGTKVQIKR
notes: mIgG2a with S239D/I332E; also called α-CD248 2 mIgG2a S239D/I332E; exemplary anti-CD248 antibody (α-CD248 2)
EC50 (read off the curve) [1]: ~0.01 µg/mL

B2: α-CD248 1 mIgG2a S239D/1332E (antibody, V domains shown)
VH: QVQLQESGPGLVAPSQSLSITCTVSGFSLTGYGVNWVRQPPEKGLEWLGMIWVDGSTDYNSALKSRLNISKDKSKSQVFLKMNSLQTDDTARYYCARGGYGAMDYWGQGTSVTVSS
VL: DIQMNQSPSSLSASLGDTITITCHASQNINVWLTWYQQKPGNIPKLLIYKASNLHTGVPSRFSGSGSGTGFTLTISSLQPEDIATYYCQQGQSYPWTFGGGTKLEIKR
notes: mIgG2a with S239D/I332E; also called α-CD248 1 mIgG2a S239D/I332E; exemplary anti-CD248 antibody (α-CD248 1)
EC50 (read off the curve) [1]: ~0.04 µg/mL

B3: α-IGF1R 1 S239D/1332E (antibody, human IgG1, kappa, V domains shown)
VH: EVQLLESGGGLVQPGGSLRLSCAASGFTFSIYRMQWVRQAPGKGLEWVSGISPSGGTTWYADSVKGRFTISRDNSKNTLYLQMNSLRAEDTAVYYCARWSGGSGYAFDIWGQGTMVTVSS
VL: DIQMTQSPLSLSASVGDRVTITCQASRDIRNYLNWYQQKPGKAPKLLIYDASSLQTGVPSRFGGSGSGTDFSFTIGSLQPEDIATYYCQQFDSLPHTFGQGTKLEIKR
notes: hIgG1 with S239D/I332E; also called α-IGF1R 1 S239D/I332E; exemplary anti-IGF1R antibody (α-IGF1R 1)
binding result [2]: binds

B6: α-IGF1R 2 S239D/1332E (antibody, human IgG1, kappa, V domains shown)
VH: EVQLLESGGGLVQPGGSLRLSCAASGFTFSNYPMYWVRQAPGKGLEWVSRISSSGGRTVYADSVKGRFTISRDNSKNTLYLQMNSLRAEDTAVYYCARDRWSRSAAEYGLGGYWGQGTLVTVSS
VL: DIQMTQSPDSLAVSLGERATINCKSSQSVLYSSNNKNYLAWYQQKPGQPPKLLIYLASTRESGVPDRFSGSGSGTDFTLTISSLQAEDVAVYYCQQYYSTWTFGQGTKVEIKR
notes: hIgG1 with S239D/I332E; also called α-IGF1R 2 S239D/I332E; exemplary anti-IGF1R antibody (α-IGF1R 2)
binding result [2]: binds

B8: α-ANTXR1 2 mIgG2a S239D/1332E (antibody, V domains shown)
VH: QVQLKESPGALVKPTQTLTLTCTFSGFSLSTSGGGVSWIRQPPGKALEWLAHIYSNDDKSYSTSLKTRLTISKDTSKNQVVLTMTNMDPVDTATYYCARGGYFLDYWGQGTLVTVSS
VL: DIELTQPPSVSVAPGQTARISCSGDNIGGIYVHWYQQKPGQAPVLVIYADSKRPSGIPERFSGSNSGNTATLTISGTQAEDEADYYCQSYDITSLVFGGGTKLTVLG
notes: mIgG2a with S239D/I332E; also called α-ANTXR1 2 mIgG2a S239D/I332E; exemplary anti-ANTXR1 antibody (α-ANTXR1 2)
EC50 (read off the curve) [5]: ~0.02 µg/mL

B9: α-PDL1 1 S239D/1332E (antibody, human IgG1, kappa, V domains shown)
VH: EVQLVQSGAEVKKPGATVKISCKVSGYTFTSYWMYWVRQARGQRLEWIGRIDPNSGSTKYNEKFKNRFTISRDNSKNTLYLQMNSLRAEDTAVYYCARDYRKGLYAMDYWGQGTTVTVSS
VL: AIQLTQSPSSLSASVGDRVTITCKASQDVGTAVAWYLQKPGQSPQLLIYWASTRHTGVPSRFSGSGSGTDFTFTISSLEAEDAATYYCQQYNSYPLTFGQGTKVEIKR
notes: Humanized, hIgG1 isotype, with S239D/I332E; also called α-PDL1 1 S239D/I332E; exemplary anti-PDL1 antibody (α-PDL1 1)
EC50 (read off the curve) [6]: ~0.02 µg/mL

B10: α-FAPa 1 S239D/1332E (antibody, mouse IgG2a, kappa, V domains shown)
VH: QVQLVQSGAEVKKPGASVKVSCKTSRYTFTEYTIHWVRQAPGQRLEWIGGINPNNGIPNYNQKFKGRVTITVDTSASTAYMELSSLRSEDTAVYYCARRRIAYGYDEGHAMDYWGQGTLVTVSS
VL: DIVMTQSPDSLAVSLGERATINCKSSQSLLYSRNQKNYLAWYQQKPGQPPKLLIFWASTRESGVPDRFSGSGFGTDFTLTISSLQAEDVAVYYCQQYFSYPLTFGQGTKVEIKR
notes: also called α-FAPα 1 S239D/I332E
binding result [7]: binds

B12: α-ANTXR1 1 mIgG2a S239D/1332E (antibody, V domains shown)
VH: QVQLVQSGAEVKKPGTSVKVSCKVPGYTFSSYAISWVRQAPGQGLEWMGGIIPIFGTTNYAQKFQGRVTITGEESTSTVYMELSSLRSEDTAVYYCARDTDYMFDYWGQGTLVTVSS
VL: SSELTQDPVVSVALGETVSITCQGDNLRDFYASWYQQKPGQAPLLVMYGKNRRPSGIPDRFSGSTSGNTLSLTITGAQAEDEADYYCSSRDNSKHVVFGGGTKVTVLG
notes: mIgG2a with S239D/I332E; also called α-ANTXR1 1 mIgG2a S239D/I332E; exemplary anti-ANTXR1 antibody (α-ANTXR1 1)
EC50 (read off the curve) [5]: ~0.01 µg/mL

Results, then the binder that gave them:

EC50 (read off the curve) [3]: ~0.3 nM
B4: α-SIRPA 1 S239D/1332E (antibody, human IgG1, kappa, V domains shown)
VH: EVQLQQSGAELVKPGASVKLSCTTSGFNFKDMYIHWVKQRPQQGLEWIGRIDPENDDTKYDPKFQDKATITADTSSNTAYLQLSNLPSEDTAVYYCARGNYVHWGQGTLVTVSA
VL: DIVLTQSPASLAVSLGQRATISCRASESVQYYGTSLMQWYQQKPGQPPKLLIYAASNVESGVPARFSGSGSGTDFSLNIYPVEEDDIAMYFCQQSRRVWTFGGGTKLEIKR
notes: Chimeric: murine variable regions, hIgG1 constant region with S239D/I332E; also called α-SIRPA 1 S239D/I332E; exemplary anti-SIRPA antibody (α-SIRPA 1)

EC50 (read off the curve) [3]: ~0.3 nM
B5: α-SIRPA 2 S239D/1332E (antibody, human IgG1, kappa, V domains shown)
VH: B4 VH with L20V, T24G, I34L, Q42E, D57S, I70L, S75A, L83I, N85S, P87T
VL: B4 VL with E59G, Y80H, S95T
notes: Chimeric: murine variable regions, hIgG1 constant region with S239D/I332E; also called α-SIRPA 2 S239D/I332E; exemplary anti-SIRPA antibody (α-SIRPA 2)

EC50 (read off the curve) [4]: ~0.03 µg/mL
B7: α-uPAR 1 S239D/1332E (antibody, human IgG1, kappa, V domains shown)
VH: QVQLVESGGGVVQPGRSLRLSCAASGFTFSSYGMHWVRQAPGKGLEWVAVIWYDGSNKYYADSVKGRFTISRDNSKNTLYLQMNSLRAEDTAVYYCARDQHIVVVTAILDYWGQGTLVTVSS
VL: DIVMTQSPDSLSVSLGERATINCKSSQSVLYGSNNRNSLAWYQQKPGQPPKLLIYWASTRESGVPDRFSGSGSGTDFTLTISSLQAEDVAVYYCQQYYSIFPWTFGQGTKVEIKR
notes: hIgG1 with S239D/I332E; also called α-uPAR 1 S239D/I332E; exemplary anti-uPAR antibody (α-uPAR 1)

EC50 (read off the curve) [3]: ~0.3 nM
B11: α-SIRPA 3 S239D/1332E (antibody, human IgG1, kappa, V domains shown)
VH: EVQLQQSGAELVKPGASVKLSCTASGFNIKDSYMHWVKQRTEQGLEWIGRIDPEDGETKYAPKFQGKATITADTSSNTAYLQLTSLTSEDTAVYYCARRGFYWGQGTTLTVSS
VL: QIVLTQSPAIMSASPGEKVTLTCSASSSVSSSYLYWYQQKPGSSPKLWIYSTSNLASGVPARFSGSGSGTSYSLTISSMEAEDAASYFCYQWSTHPYTFGGGTKLEIKR
notes: Chimeric: murine variable regions, hIgG1 constant region with S239D/I332E; also called α-SIRPA 3 S239D/I332E; exemplary anti-SIRPA antibody (α-SIRPA 3)
